T1: human IL-2Rα subunit (human, UniProt P01589 22-213, limits assumed)
T1 construct: also called CD25
T1 sequence (looked up): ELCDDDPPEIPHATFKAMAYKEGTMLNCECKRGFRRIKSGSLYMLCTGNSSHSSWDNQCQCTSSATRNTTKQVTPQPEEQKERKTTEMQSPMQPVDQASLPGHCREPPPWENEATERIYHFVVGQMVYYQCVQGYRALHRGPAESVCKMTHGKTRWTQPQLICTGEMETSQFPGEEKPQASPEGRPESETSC

Bridge positions count the residues as written; N and C are the ends. Ends that are not written are not given here. Where only a bound is given, the exact number is not on record here.

This experiment addresses T1, human IL-2Rα subunit.
Turning to YCHDFKGTVGTLCI (disulfide 2-13 (inferred)) [SEQ ID NO 233], the concentration for half-maximal inhibition (IC50) was under 100 µM.
Then VVLCTPKGCRSA [SEQ ID NO 22], with under 100 µM; and SCMDLKGSVGWVCD [SEQ ID NO 229], with under 100 µM.
TCESLAKMYEVECN [SEQ ID NO 230] had an IC50 of under 100 µM.
Then CILNDTIQGWVCIY [SEQ ID NO 259], with under 100 µM; and EWECRFLPGRRGCSLF [SEQ ID NO 247], with under 100 µM; and WCIGQPLFRQGSCK [SEQ ID NO 250], with under 100 µM.
In turn, FVHCSLMGCWCG [SEQ ID NO 253] gave an IC50 of under 100 µM.
Then WCWEPHDQYYVRCP [SEQ ID NO 232], with under 100 µM; and RDCAGMEPGTSVFCDN [SEQ ID NO 220], with under 100 µM.
Then CRMMQGTYGWTCLF (disulfide 1-12 (inferred)) [SEQ ID NO 258], with under 100 µM.
As to LVFCGKNGCHSG [SEQ ID NO 21], the IC50 was under 100 µM.
GCQLVWQDDSYMCFY [SEQ ID NO 234]: the IC50 is under 100 µM.
Then YVMCSAFGCKSI [SEQ ID NO 241], with under 100 µM.
Then RVCCTFAGCRVCHK [SEQ ID NO 265], with under 100 µM; and AVSCNSWRCIPW [SEQ ID NO 251], with under 100 µM.
Then WVICSALGCRSM [SEQ ID NO 30], with under 100 µM; and WVICSALGCRSI [SEQ ID NO 33], with under 100 µM; and WVICSAMGCRSI [SEQ ID NO 32], with under 100 µM.
WVICSALGCRSL [SEQ ID NO 29] had an IC50 of under 100 µM.
Then WVICSAFGCRSM [SEQ ID NO 34], with under 100 µM; and CLVFDQYGNYKRRC [SEQ ID NO 261], with under 100 µM.
As to WCVGQPLYRLGSCK (disulfide 2-13 (inferred)) [SEQ ID NO 238], the IC50 was under 100 µM.
Then QVCCTSRGCRVCAPV [SEQ ID NO 263], with under 100 µM; and VKCYRNSPGVEAYCVG (disulfide 3-14 (inferred)) [SEQ ID NO 224], with under 100 µM.
Then QLCPWSDPGSWGPCPL [SEQ ID NO 219], with under 100 µM; and CVLREGAEGWECVWR [SEQ ID NO 257], with under 100 µM.
As to VRCRQNEPGGAYWCSS [SEQ ID NO 256], the IC50 is under 100 µM.
Then RCLDLGGSVGLVCF [SEQ ID NO 254], with under 100 µM; and GGCSLVWADSWVCIF [SEQ ID NO 245], with under 100 µM; and IRCRYEKQSGICLF [SEQ ID NO 244], with under 100 µM.
Then KGCTLQNPGSGWVCLF [SEQ ID NO 248], with under 100 µM.
On to FLPWPVYFSQVLGGG [SEQ ID NO 240], for which the IC50 was under 100 µM.
Molecule WCIGQPLFRQGSCK [SEQ ID NO 237] showed an IC50 of under 100 µM.
Then RDCFILEPGTSVYCDL [SEQ ID NO 221], with under 100 µM; and RVCCTSDGCRGCRQ [SEQ ID NO 266], with under 100 µM.
WDQFQLGWEAGVAA [SEQ ID NO 239] displayed an IC50 of under 100 µM.
Then DCLDLRGTVGMVCQ [SEQ ID NO 227], with under 100 µM; and TCRLKRSGPNSWECI [SEQ ID NO 249], with under 100 µM.
In turn, TCESLARMYNENCI [SEQ ID NO 231] had an IC50 of under 100 µM.
Then RRFCLRSEPTACWIV [SEQ ID NO 59], with under 100 µM.
Then RRFCLRSEPTACWTV (disulfide 4-12 (inferred)) [SEQ ID NO 66], with under 100 µM; and RRFCLRSEPTACWYV [SEQ ID NO 68], with under 100 µM; and IRFCLRSEPTACWIV [SEQ ID NO 243], with under 100 µM.
Then IRFCLRSEPTACWIV [SEQ ID NO 54], with under 100 µM; and KRFCLRSEPTACWTV [SEQ ID NO 64], with under 100 µM; and RRFCLRSEPTACWDV [SEQ ID NO 62], with under 100 µM.
RRFCLRSDPTACWIV [SEQ ID NO 63]: the half-maximal inhibitory concentration (IC50) was under 100 µM.
Turning to RRFCLRSEPMACWTV (disulfide 4-12 (inferred)) [SEQ ID NO 65], the IC50 is under 100 µM.
Then MRFCLRSEPTACWTV [SEQ ID NO 61], with under 100 µM; and RVCCSMVGCRSCNL [SEQ ID NO 264], with under 100 µM.
The molecule CTLYRSAPGVWLCIF [SEQ ID NO 260] displayed an IC50 of under 100 µM.
Then IVCCNMFGCHTCRN [SEQ ID NO 262], with under 100 µM; and PCQRLAEYYSQQCL (disulfide 2-13 (inferred)) [SEQ ID NO 228], with under 100 µM.
Then AVCCDGNSCRRC [SEQ ID NO 252], with under 100 µM.
Consider TDCQETWPGDRPWCHI [SEQ ID NO 222], for which the IC50 was under 100 µM.
Then VKCFMSTPGQIAYCTT [SEQ ID NO 223], with under 100 µM.
As for HVICSVNGGCRG [SEQ ID NO 242], the IC50 is under 100 µM.
Turning to GCSLMWQDGWWVCI [SEQ ID NO 246], the 50% inhibitory concentration (IC50) was under 100 µM.
Then FVHCTLLGCWSG [SEQ ID NO 24], with under 100 µM; and YVMCSAFGCKSI [SEQ ID NO 23], with under 100 µM; and VCCHQTFGCYRCKQ [SEQ ID NO 268], with under 100 µM.
Then VCFNFRGTVGRHCW [SEQ ID NO 255], with under 100 µM; and LDLTYDELLACT [SEQ ID NO 2], with under 100 µM; and TVCCTVQGCWPCSR [SEQ ID NO 267], with under 100 µM.

Values taken from patent US20200399314A1 (MEDIKINE, published 2020).
